This is an account of results in the supplement of paper PMC12042874.

The data set can be described thus: amyloid nucleation score (Sup35N fusion, yeast selection) (log enrichment); library NNK3; higher = more nucleation; inactive = no reads after selection. In outline:
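Plasmid inserts were Illumina-sequenced at input and output from psi-negative yeast expressing Sup35N fused to peptides of 20 random codons. The yeast were induced with 100 μM copper sulfate for 24 hours and grown 7 days at 30°C on medium lacking adenine and uracil, and sequences with under 100 input reads were excluded. Nucleation score is the DiMSum log enrichment of output over input reads, centred on the mode score of non-aggregating sequences.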

± gives the uncertainty stated by the source.

In the case of FFVNYHVGIFMSIYQIFVYV, the amyloid nucleation score entry was “inactive”.
Turning to FSMCCTWYFKFHL, the amyloid nucleation score was 0.596 ± 0.14.
The result for FGVVH reads “inactive”; that for FDKGFLMTLNTLAVLSNQE, “inactive”; that for MPCLYALLYG, “inactive”.
As for SMATDAWGTTKF, the amyloid nucleation score result is “inactive”.
With TGPMGI, the amyloid nucleation score entry is “inactive”.
Turning to LKRLSCFTGSPR, the amyloid nucleation score entry is “inactive”.
Regarding ACNSPEVLQNLQRLRSCGRR, the amyloid nucleation score result is “inactive”.
IKQRDN: the amyloid nucleation score entry was “inactive”.
With IRMYSIWREDVSRRKARCMW, the amyloid nucleation score result was “inactive”.
The result for WAPLQALSFGK reads “inactive”.
Take FVNISHMY: the amyloid nucleation score result was “inactive”.
Take VRSIRWKVT: the amyloid nucleation score entry was “inactive”.
As to VLSSWTIK, the amyloid nucleation score entry was “inactive”.
As for SAYTTLRDRRCSKGYNMILG, the amyloid nucleation score result was “inactive”.
VQAAKLVYHYQGSCLNRLRE: the amyloid nucleation score entry was “inactive”.
Under QARIWSSSVGAFSNCHSCRC stands “inactive”; under LRPNLQSDVPRRYTMCGTHA, “inactive”; under AQILSYVVSYSDPERHFSVM, “inactive”.
In the case of VRSHPCSGGTLVGWDSYW, the amyloid nucleation score stood at 1.01 ± 0.14.
With IGCCFSVLKNLLFSFDVKQF, the amyloid nucleation score result is “inactive”.
Substance GGNGKAWHVGTVIMCRKLRV yielded an amyloid nucleation score of 2.5 ± 0.078.
Take LNMCLSLVSVLRAVSVYLWT: the amyloid nucleation score entry is “inactive”.
Turning to YDKVLRPMVSYYSR, the amyloid nucleation score entry is “inactive”.
On to KEFAIESTVLFYTVLLKAAH, for which the amyloid nucleation score entry was “inactive”.
Turning to RMGIYCGDRFQ, the amyloid nucleation score entry was “inactive”.
Take EVDFVALIPCSQTVLFTVEV: the amyloid nucleation score entry is “inactive”.
Take LFSVMSKYSFRWLRDNFCHA: the amyloid nucleation score entry is “inactive”.
The result for FANKTRYSPWSCNPVFWYDR reads “inactive”; that for SVRTSAYYKFQRTERVSMCM, “inactive”.
The substance FNFVLALI gave an amyloid nucleation score of 1.69 ± 0.084.
The substance YHCVRLFRVPMTISRGDAQK displayed an amyloid nucleation score of -0.271 ± 0.59.
Take DKKGK: the amyloid nucleation score entry was “inactive”.
Under LAAICYEVFGCGTWMGC stands “inactive”; under EMPLF, “inactive”; under FYCRSGVGKCYGWVTKVMRE, “inactive”.
As for LFGQVVGVDFFNWWCFEMHK, the amyloid nucleation score entry was “inactive”.
Regarding VFQHGWGEVLRSRQGLLGSR, the amyloid nucleation score result is “inactive”.
Take AWGYYPSLCGKEDVYSWGWG: the amyloid nucleation score result is “inactive”.
As for KVCHSWVWHILGSLDYITRG, the amyloid nucleation score result is “inactive”.
On to ESSHRTSIFRDWCNSLLI, for which the amyloid nucleation score result was “inactive”.
With RRPVYIIASNLDYMQTSCIT, the amyloid nucleation score entry is “inactive”.
The result for SSVMFVRIVLRIGGYHLAAR reads “inactive”; that for NMVYLGDLTITMSTFDAFR, 0.53 ± 0.18.
Take VYFRFYNL: the amyloid nucleation score stood at 1.36 ± 0.073.
Regarding YTVSS, the amyloid nucleation score entry is “inactive”.
Consider SFNGMSCLRNNLRWNFNRNA, for which the amyloid nucleation score entry was “inactive”.
On to FNSNFHHSVNSVNGITFSEA, for which the amyloid nucleation score result was “inactive”.
As to FWWLEI, the amyloid nucleation score result was “inactive”.
The result for KGETDFVLKP reads -0.432 ± 0.87; that for QRSSHGPLGCLSDLQLNTLR, -0.882 ± 1.4; that for GRKKVVTWQLLARQP, “inactive”.
The result for FVSILLYYMPVNCLNRKTIN reads “inactive”; that for FNVLSDPACVRPGLVVRVSE, “inactive”; that for CSVVWIMV, -0.852 ± 0.8.
On to RSSESNIICTTLRYLSVVVY, for which the amyloid nucleation score entry was “inactive”.
Take NIFWP: the amyloid nucleation score result was “inactive”.
Consider WVNTGNQRLYRQTCCGTLVR, for which the amyloid nucleation score result was “inactive”.
Turning to SGYLYFFLRSVDCRFLTSSL, the amyloid nucleation score entry is “inactive”.
As to LYLYYSSTVSLVKYSNEVNC, the amyloid nucleation score entry was “inactive”.
Regarding FYCGFAMGFILCCQNYTFVT, the amyloid nucleation score is 2.63 ± 0.076.
On to LLVSFLVVLSWAVRFSRMGD, for which the amyloid nucleation score entry was “inactive”.
Turning to NTIGNNVKYETRCNQSV, the amyloid nucleation score result is “inactive”.
Regarding NAVLEFTPMFMFRTLSGRRV, the amyloid nucleation score result is “inactive”.
Turning to DFYEIRTSGCDLYMFRGVVA, the amyloid nucleation score entry is “inactive”.
The result for TVRDELSSVFL reads “inactive”; that for YLCLWCVEQLMYCRPRRLEE, “inactive”; that for LKMMSLLTSEATSMHHGVNW, “inactive”.
With VASTVSRVAKDTKAKVAYR, the amyloid nucleation score result is “inactive”.
Substance GGTIFNGNWVSTLSHPQRRA showed an amyloid nucleation score of 0.47 ± 0.25.
For the substance RSTWEQ, the amyloid nucleation score result is “inactive”.
Take LFQLHMVLSF: the amyloid nucleation score result was “inactive”.
In the case of YCGKCRAFCCQSCPIRVRLV, the amyloid nucleation score entry is “inactive”.
Under IARINGMLASSGVASTM stands “inactive”; under SKLCVVTFLCIQTCQYDLCV, “inactive”; under ATVTWHYAAWTWLGFRPSSL, “inactive”.
WIIEGSRLRC: the amyloid nucleation score result is “inactive”.
The result for VLRYWRRLGQYTAGSYPEVL reads “inactive”.
The result for PGYSFKVSA reads -1.06 ± 2.5; that for DVHWISGKSNYSDDNRCYST, “inactive”.
Under EENTVSSTAIKNVVYSQFQV stands “inactive”; under YYYLR, “inactive”; under AWRCLGSYCMRLRVSIKSQ, “inactive”.
For DGMFSFGSLCRYAELETSGK, the amyloid nucleation score result is “inactive”.
For VYRLFRMYILTGGLNVNGGR, the amyloid nucleation score entry is “inactive”.
On to FLVNFGKDFEIWREHYGVTI, for which the amyloid nucleation score is -0.484 ± 1.4.
For VGDHDPSRFCQDNLCLSRCL, the amyloid nucleation score entry was “inactive”.
The result for YCSVLELKSYLTLSLSKWKW reads “inactive”.
Turning to YKSNLLSYGALLISDFVLVR, the amyloid nucleation score is -0.108 ± 0.63.
Under IVLYQATCRSIKRVCVLETL stands “inactive”.
Under SCRIFDPMEPTTLCENSWSL stands “inactive”; under GKFVRLPPISRISHLWNCEL, “inactive”.
HPSTSTYRQRLPNCY: the amyloid nucleation score entry is “inactive”.
The result for RFNMCGEYGKVHGLGW reads “inactive”; that for KVAILVHILNNLVRVRVCFN, “inactive”.
As for DGAYYGLCMMFNVSVLMGII, the amyloid nucleation score turned out to be 0.063 ± 0.51.
Under IHKCYT stands “inactive”; under LFNYVEEIRAVRRIRLGYIK, “inactive”; under TDRLGCSFELCAPTCKCAGV, “inactive”.
As to SSKHC, the amyloid nucleation score result is “inactive”.
On to ISMSVYFFTIISSQFMFPIR, for which the amyloid nucleation score entry is “inactive”.
As for VFSIND, the amyloid nucleation score result was “inactive”.
With LRSDMLVVPRIFFACFWSIK, the amyloid nucleation score entry was “inactive”.
For NLFLRFIVTLWDRFCPYFYQ, the amyloid nucleation score entry is “inactive”.
Consider MLCTTLRNYMTSSICFIRYQ, for which the amyloid nucleation score entry is “inactive”.
In the case of VHHEILHHGLFGEMSCVVEC, the amyloid nucleation score entry was “inactive”.
The substance DSVKSALRRGI showed an amyloid nucleation score of -0.166 ± 0.9.
As to VRVELNYKMMHMSHRIMY, the amyloid nucleation score came out at 1.52 ± 0.073.
In the case of WLVFITPYLSLSCLSLINKI, the amyloid nucleation score entry was “inactive”.
Under WVIACVMRYVVFKNKVMIVR stands “inactive”.
Regarding SLIFFL, the amyloid nucleation score was determined as 1.35 ± 0.12.
In the case of AIISWQTLMWLYL, the amyloid nucleation score entry was “inactive”.
For the substance ELALISHTLGSSATPNWFTV, the amyloid nucleation score entry is “inactive”.
For the substance KANDMVFMGGGVLKLGRTLA, the amyloid nucleation score result was “inactive”.
With GWSFAWCTRVRVMGKVAVWW, the amyloid nucleation score result was “inactive”.
Take FIMRSSSC: the amyloid nucleation score entry is “inactive”.
As for LRPCRDRRFLVPDDYSSVFF, the amyloid nucleation score result was “inactive”.
The result for RWLASNVDPKITSEIQPGAS reads “inactive”; that for CKFFQGKEEVS, “inactive”; that for INFLCTDAFTMKFTGAYGKH, 2.4 ± 0.054.
In the case of KQTFKYTGVDHTVT, the amyloid nucleation score result was “inactive”.
In the case of AFVNLYGKSARQSRQPMA, the amyloid nucleation score result is “inactive”.
In the case of NACTF, the amyloid nucleation score entry is “inactive”.
In the case of MTMQKSSIFFLHEAKLNFSA, the amyloid nucleation score result was “inactive”.
KGFSFLRIRRMGLWTVSGYG: the amyloid nucleation score entry was “inactive”.
Regarding LYHTLKTHVKIFPCHSTDAP, the amyloid nucleation score result is “inactive”.
Turning to WFVQLSRMWFYANGNCPV, the amyloid nucleation score result is “inactive”.
Regarding FFHSIPKFFRAQKMCTYVPP, the amyloid nucleation score result was “inactive”.
FVTQFVEN: the amyloid nucleation score result was “inactive”.
With ECVFIKFWVEGWKTLWSWSA, the amyloid nucleation score entry is “inactive”.
